Measurements: patent US20230391826A1, “COMPOSITIONS AND METHODS FOR TREATING DISEASES” (Sanford Burnham Prebys Medical Discovery Institute, priority 2020, published 2023)

Columns and labels:
[1] = biological target: EphA2 extracellular domain fused to the Fc portion of an antibody (EphA2-Fc); test: ELISA, inhibition of ephrinA5-AP binding to immobilized EphA2-Fc; representative experiment, triplicates
[2] = biological target: EphA2 extracellular domain fused to the Fc portion of an antibody (EphA2-Fc); test: ELISA, inhibition of ephrinA5-AP binding to immobilized EphA2-Fc
[3] = biological target: EphA2 endogenously expressed on PC3 prostate cancer cells (UniProt P29317); test: cell-based or functional assay
Chain of EphA2 endogenously expressed on PC3 prostate cancer cells (P29317 24-976 limits assumed): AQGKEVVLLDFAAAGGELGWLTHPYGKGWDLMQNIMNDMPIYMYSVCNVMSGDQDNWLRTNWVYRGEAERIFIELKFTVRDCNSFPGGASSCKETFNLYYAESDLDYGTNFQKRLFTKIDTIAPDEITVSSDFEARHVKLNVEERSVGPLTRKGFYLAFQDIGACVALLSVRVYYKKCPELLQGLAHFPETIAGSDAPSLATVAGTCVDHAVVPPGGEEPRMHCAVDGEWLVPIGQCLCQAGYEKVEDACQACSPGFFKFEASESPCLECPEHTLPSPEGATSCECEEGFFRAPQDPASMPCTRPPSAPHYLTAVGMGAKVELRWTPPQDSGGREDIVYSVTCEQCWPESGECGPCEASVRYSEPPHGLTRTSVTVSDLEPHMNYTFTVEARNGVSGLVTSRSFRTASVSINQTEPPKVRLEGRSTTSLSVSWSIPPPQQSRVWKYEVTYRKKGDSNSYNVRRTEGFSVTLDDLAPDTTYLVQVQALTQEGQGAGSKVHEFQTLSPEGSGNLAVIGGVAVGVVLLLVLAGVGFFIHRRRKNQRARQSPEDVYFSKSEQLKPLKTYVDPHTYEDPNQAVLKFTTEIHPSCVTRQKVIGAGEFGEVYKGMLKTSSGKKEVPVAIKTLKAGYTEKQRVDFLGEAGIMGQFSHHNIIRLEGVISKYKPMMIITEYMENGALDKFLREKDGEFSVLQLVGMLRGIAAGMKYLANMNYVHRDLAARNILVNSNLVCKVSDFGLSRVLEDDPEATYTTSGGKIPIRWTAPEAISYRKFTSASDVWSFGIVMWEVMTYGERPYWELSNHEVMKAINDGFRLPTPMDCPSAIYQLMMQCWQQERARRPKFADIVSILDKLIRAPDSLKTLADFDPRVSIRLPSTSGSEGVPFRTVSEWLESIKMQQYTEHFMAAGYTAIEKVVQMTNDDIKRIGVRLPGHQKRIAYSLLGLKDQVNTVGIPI

Chain of m-ephrinA1 (monomer) (ligand) (P20827 19-182): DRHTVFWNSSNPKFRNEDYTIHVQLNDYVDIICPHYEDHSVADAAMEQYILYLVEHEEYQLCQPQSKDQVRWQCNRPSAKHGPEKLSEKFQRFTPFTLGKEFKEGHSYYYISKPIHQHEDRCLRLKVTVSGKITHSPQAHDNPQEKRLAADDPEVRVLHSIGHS

| IC50 [1] [nM] | IC50 [2] [nM] | Blig (bias factor) [3] | EC50 PY588 [3] [nM] | EC50 pAKT inhib [3] [nM] | EC50 pY588 [3] [nM] | Emax PY588 (normalized to ephrinA1-Fc) [3] | Etop pAKT inhib [3] | IC50 PAKT [3] [nM] | βlig (bias factor) [3] | Etop pY588 (normalized to ephrinA1-Fc) [3] | Substance |
| --- | --- | --- | --- | --- | --- | --- | --- | --- | --- | --- | --- |
| 0.49 | 0.4 |  |  |  |  |  |  |  |  |  | CGA-WLA-YRPKam dimer (N-ter) (peptide) |
|  |  | 0 | 0.81 | 1.7 | 3.8 | 1 | 1 | 0.62 | 0 |  | ephrinA1-Fc (dimer) (Fc fusion) |
| 19 | 21 | 0.3 | 28 | 27 | 74 | 0.74 | 1 | 13 | 0.54 | 0.36 | m-ephrinA1 (monomer) (ligand) |
